Growth estimate data for 144 sequences are collected here from the supplement of paper PMC5949888.

The subject of the data set is Saccharomyces cerevisiae PS128 hsf1 delta, HSF1(1-493) fusion. The experiment in a line: growth estimate (transactivation domain function in HSF1 fusion, heat-shock survival) (a.u. (slope of normalised read count over time)); higher = stronger growth at 37°C, i.e. more transactivation activity. Particulars: library: design library. The procedure, abridged: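 Transactivation-domain oligos were designed and fused to a truncated yeast HSF1 (amino acids 1–493), then expressed in a yeast strain lacking hsf1. Replica plating onto –trp 5-FOA plates was followed by incubation at 30°C or 37°C for 0, 2, 4, 6 and 8 days. Inserts were amplified by PCR and sequenced on an Illumina MiSeq as six barcoded replicates from a single experiment. The growth estimate is the slope of a robust linear fit over time of read counts normalised to sample totals and to starting count.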

Take PEFPGIELQELQELQAALQQ: the growth estimate is -0.23.
Consider PEFPGIELQELQELQALKQQ, for which the growth estimate is -0.232.
The value for PEFPGIELQELQELQALLAQ was below -0.25.
Then PEFPGIELQELQELQALLGQ, with -0.226; and PEFPGIELQELQELQALLKQ, with 0.0452; and PEFPGIELQELQELQALLQA, with -0.246.
With PEFPGIELQELQELQALLQG, the growth estimate was -0.0522.
Regarding PEFPGIELQELQELQALLQK, the growth estimate was -0.125.
As to PEFPGIELQELQELQALLQP, the growth estimate is -0.215.
Consider PEFPGIELQELQELQALLQQ, for which the growth estimate was -0.0979.
The value for PEFPGIELQELQELQALLRQ was -0.245.
As to PEFPGIELQELQELQALPQQ, the growth estimate was below -0.25.
Take PEFPGIELQELQELQALRQQ: the growth estimate is -0.168.
The value for PEFPGIELQELQELQAPLQQ was below -0.25; that for PEFPGIELQELQELQGLLQQ was below -0.25; that for PEFPGIELQELQELQKLLQQ was below -0.25.
Then PEFPGIELQELQELQRLLQQ, with -0.177; and PEFPGIELQELQELRALLQQ, with below -0.25; and PEFPGIELQELQERQALLQQ, with below -0.25.
For PEFPGIELQELQGLQALLQQ, the growth estimate is below -0.25.
For the sequence PEFPGIELQELQRLQALLQQ, the growth estimate was below -0.25.
Consider PEFPGIELQERQELQALLQQ, for which the growth estimate was -0.248.
Then PEFPGIELQPLQELQALLQQ, with -0.243; and PEFPGIELQRLQELQALLQQ, with -0.107; and PEFPGIELRELQELQALLQQ, with 0.0112.
Take PEFPGIEPQELQELQALLQQ: the growth estimate is 0.114.
In the case of PEFPGIKLQELQELQALLQQ, the growth estimate is -0.02.
Then PEFPGIPLQELQELQALLQQ, with -0.204; and PEFPGIRLQELQELQALLQQ, with -0.249.
On to PEFPGKELQELQELQALLQQ, for which the growth estimate was below -0.25.
The value for PEFPGRELQELQELQALLQQ was below -0.25.
Then PEFPKIELQELQELQALLQQ, with below -0.25; and PEFPPIELQELQELQALLQQ, with -0.0915; and PEFRGIELQELQELQALLQQ, with -0.124.
Then PEGPGIELQELQELQALLQQ, with below -0.25; and PEKPGIELQELQELQALLQQ, with -0.204.
For the sequence PELSWIIELLEKDG, the growth estimate was -0.201.
In the case of PEPPGIELQELQELQALLQQ, the growth estimate was below -0.25.
In the case of PFADTQDDFLKWWRSEEAQ, the growth estimate is 0.444.
For PFDLDMLGDFDLDMLG, the growth estimate was 4.25.
Regarding PFDYDFLFGNDFA, the growth estimate is 2.14.
The value for PFGDTQDDFLKWWRSEEAQ was 0.304; that for PFNDLLDLDFILSN was 0.542; that for PFPATQDDFLKWWRSEEAQ was below -0.25.
As for PFPDAQDDFLKWWRSEEAQ, the growth estimate is -0.158.
The value for PFPDPQDDFLKWWRSEEAQ was -0.0255; that for PFPDRQDDFLKWWRSEEAQ was -0.241; that for PFPDTADDFLKWWRSEEAQ was 0.6.
For PFPDTGDDFLKWWRSEEAQ, the growth estimate was -0.0916.
In the case of PFPDTKDDFLKWWRSEEAQ, the growth estimate was below -0.25.
For PFPDTPDDFLKWWRSEEAQ, the growth estimate was 0.819.
For the sequence PFPDTQADFLKWWRSEEAQ, the growth estimate was below -0.25.
Turning to PFPDTQDAFLKWWRSEEAQ, the growth estimate is 0.5.
Then PFPDTQDDFGKWWRSEEAQ, with below -0.25; and PFPDTQDDFLAWWRSEEAQ, with 2.37.
Turning to PFPDTQDDFLKAWRSEEAQ, the growth estimate is below -0.25.
Consider PFPDTQDDFLKGWRSEEAQ, for which the growth estimate was -0.242.
For PFPDTQDDFLKKWRSEEAQ, the growth estimate was -0.167.
Turning to PFPDTQDDFLKPWRSEEAQ, the growth estimate was below -0.25.
In the case of PFPDTQDDFLKWARSEEAQ, the growth estimate is 0.0578.
With PFPDTQDDFLKWPRSEEAQ, the growth estimate was below -0.25.
Turning to PFPDTQDDFLKWRRSEEAQ, the growth estimate is -0.221.
Consider PFPDTQDDFLKWWASEEAQ, for which the growth estimate was 4.59.
In the case of PFPDTQDDFLKWWGSEEAQ, the growth estimate is 1.82.
For the sequence PFPDTQDDFLKWWKSEEAQ, the growth estimate is -0.186.
Regarding PFPDTQDDFLKWWPSEEAQ, the growth estimate is 3.12.
The value for PFPDTQDDFLKWWRGEEAQ was 0.0794; that for PFPDTQDDFLKWWRKEEAQ was -0.247; that for PFPDTQDDFLKWWRSEAAQ was -0.154.
In the case of PFPDTQDDFLKWWRSEEAA, the growth estimate was -0.236.
As to PFPDTQDDFLKWWRSEEAG, the growth estimate is 0.0636.
As for PFPDTQDDFLKWWRSEEAK, the growth estimate is -0.25.
Take PFPDTQDDFLKWWRSEEAP: the growth estimate is 0.0281.
Turning to PFPDTQDDFLKWWRSEEAQ, the growth estimate was -0.149.
Take PFPDTQDDFLKWWRSEEAR: the growth estimate was -0.248.
Turning to PFPDTQDDFLKWWRSEEGQ, the growth estimate was 0.109.
Turning to PFPDTQDDFLKWWRSEEKQ, the growth estimate is below -0.25.
Take PFPDTQDDFLKWWRSEGAQ: the growth estimate was -0.0427.
In the case of PFPDTQDDFLKWWRSEPAQ, the growth estimate was -0.225.
As to PFPDTQDDFLKWWRSERAQ, the growth estimate was below -0.25.
Consider PFPDTQDDFLKWWRSKEAQ, for which the growth estimate is -0.183.
For PFPDTQDDFLKWWRSPEAQ, the growth estimate is -0.176.
For the sequence PFPDTQDDFLKWWRSREAQ, the growth estimate was below -0.25.
Take PFPDTQDDFLPWWRSEEAQ: the growth estimate is -0.145.
Regarding PFPDTQDDFLRWWRSEEAQ, the growth estimate is -0.0276.
For the sequence PFPDTQDDFRKWWRSEEAQ, the growth estimate was -0.247.
With PFPDTQDDKLKWWRSEEAQ, the growth estimate was -0.245.
As to PFPDTQDDPLKWWRSEEAQ, the growth estimate is below -0.25.
Take PFPDTQDDRLKWWRSEEAQ: the growth estimate is -0.109.
As for PFPDTQDGFLKWWRSEEAQ, the growth estimate is below -0.25.
As for PFPDTQDPFLKWWRSEEAQ, the growth estimate is below -0.25.
Regarding PFPDTQDRFLKWWRSEEAQ, the growth estimate is below -0.25.
On to PFPDTQGDFLKWWRSEEAQ, for which the growth estimate is -0.248.
On to PFPDTQKDFLKWWRSEEAQ, for which the growth estimate was below -0.25.
PFPDTQPDFLKWWRSEEAQ: the growth estimate is -0.22.
In the case of PFPDTQRDFLKWWRSEEAQ, the growth estimate is -0.245.
Then PFPGTQDDFLKWWRSEEAQ, with below -0.25; and PFPPTQDDFLKWWRSEEAQ, with -0.215; and PFPRTQDDFLKWWRSEEAQ, with -0.248.
As to PFRDTQDDFLKWWRSEEAQ, the growth estimate is -0.0923.
Then PGFPGIELQELQELQALLQQ, with -0.0439; and PKPDTQDDFLKWWRSEEAQ, with -0.158; and PLSSHGFSVDTSALLDLFSP, with 0.0027.
On to PMDDVYNYLFDD, for which the growth estimate was 1.41.
Then PPFPGIELQELQELQALLQQ, with -0.187; and PQNGEIAQLWDFN, with -0.229.
Regarding PRFPGIELQELQELQALLQQ, the growth estimate is below -0.25.
Then QGNGEIAQLWDFN, with below -0.25; and QKNGEIAQLWDFN, with below -0.25.
For QQAGEIAQLWDFN, the growth estimate is below -0.25.
Turning to QQGGEIAQLWDFN, the growth estimate was 0.0021.
As to QQKGEIAQLWDFN, the growth estimate is below -0.25.
Take QQNAEIAQLWDFN: the growth estimate is below -0.25.
Take QQNGAIAQLWDFN: the growth estimate is -0.114.
In the case of QQNGEGAQLWDFN, the growth estimate was below -0.25.
QQNGEIAALWDFN: the growth estimate was -0.237.
Turning to QQNGEIAGLWDFN, the growth estimate is -0.148.
Turning to QQNGEIAPLWDFN, the growth estimate was below -0.25.
In the case of QQNGEIAQAWDFN, the growth estimate is below -0.25.
In the case of QQNGEIAQGWDFN, the growth estimate was -0.247.
As to QQNGEIAQKWDFN, the growth estimate is 0.0645.
Then QQNGEIAQLADFN, with -0.24; and QQNGEIAQLGDFN, with -0.218; and QQNGEIAQLKDFN, with -0.215.
The value for QQNGEIAQLRDFN was below -0.25; that for QQNGEIAQLWDAN was -0.23.
QQNGEIAQLWDFA: the growth estimate was below -0.25.
Turning to QQNGEIAQLWDFK, the growth estimate was below -0.25.
As for QQNGEIAQLWDFN, the growth estimate is -0.146.
Consider QQNGEIAQLWDFP, for which the growth estimate is -0.243.
For QQNGEIAQLWDFR, the growth estimate was -0.245.
For QQNGEIAQLWDGN, the growth estimate is -0.163.
The value for QQNGEIAQLWDPN was -0.246; that for QQNGEIAQLWDRN was -0.121.
Regarding QQNGEIAQLWGFN, the growth estimate was below -0.261.
Regarding QQNGEIAQLWKFN, the growth estimate was below -0.25.
Turning to QQNGEIAQLWRFN, the growth estimate is -0.166.
Regarding QQNGEIAQRWDFN, the growth estimate is below -0.25.
Regarding QQNGEIARLWDFN, the growth estimate is -0.234.
As to QQNGEIKQLWDFN, the growth estimate was below -0.25.
For the sequence QQNGEIRQLWDFN, the growth estimate is -0.0449.
As to QQNGEKAQLWDFN, the growth estimate was -0.22.
With QQNGEPAQLWDFN, the growth estimate was -0.235.
Then QQNGERAQLWDFN, with -0.0438.
